Assay [1] concerns the target SLAM (Canis lupus familiaris) (UniProt Q95MM9). The note with it: cited from earlier work.
Assay [2] addresses head domain of measles virus hemagglutinin, Edmonston vaccine strain (measles virus, Edmonston strain) (UniProt P08362). As to the kind of experiment: SPR.
The target of assay [3] is head domain of measles virus hemagglutinin, IC-B wild-type strain (measles virus, IC-B strain) (UniProt Q786F2). The assay is described as follows: SPR.

For two substances, Kd, koff and kon results are on record in publication PMC6722581.

The pKd is −log10 of the Kd, conventionally taken in molar units. As usually defined, the koff is the first-order rate constant of dissociation. Read a low koff as slow dissociation. What is called kon is the second-order rate constant of association. The low end stands for slower complex formation, the high end for faster complex formation.

pKd: −log10 of the molar value.

Chain of UniProt P08362 (P08362 149-617): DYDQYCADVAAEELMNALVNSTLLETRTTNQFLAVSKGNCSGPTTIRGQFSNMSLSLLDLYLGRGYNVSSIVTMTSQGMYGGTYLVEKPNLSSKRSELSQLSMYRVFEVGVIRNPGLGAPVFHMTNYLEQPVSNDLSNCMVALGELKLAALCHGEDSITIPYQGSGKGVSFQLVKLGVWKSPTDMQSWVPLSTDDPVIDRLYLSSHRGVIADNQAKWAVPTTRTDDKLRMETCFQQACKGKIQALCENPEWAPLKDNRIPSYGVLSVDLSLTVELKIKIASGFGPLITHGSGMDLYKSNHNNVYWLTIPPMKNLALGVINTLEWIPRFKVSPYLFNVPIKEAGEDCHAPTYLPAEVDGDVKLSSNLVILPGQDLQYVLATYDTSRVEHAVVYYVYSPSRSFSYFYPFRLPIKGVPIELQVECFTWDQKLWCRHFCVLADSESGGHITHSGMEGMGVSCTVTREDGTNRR
Chain of UniProt Q786F2 (Q786F2 149-617): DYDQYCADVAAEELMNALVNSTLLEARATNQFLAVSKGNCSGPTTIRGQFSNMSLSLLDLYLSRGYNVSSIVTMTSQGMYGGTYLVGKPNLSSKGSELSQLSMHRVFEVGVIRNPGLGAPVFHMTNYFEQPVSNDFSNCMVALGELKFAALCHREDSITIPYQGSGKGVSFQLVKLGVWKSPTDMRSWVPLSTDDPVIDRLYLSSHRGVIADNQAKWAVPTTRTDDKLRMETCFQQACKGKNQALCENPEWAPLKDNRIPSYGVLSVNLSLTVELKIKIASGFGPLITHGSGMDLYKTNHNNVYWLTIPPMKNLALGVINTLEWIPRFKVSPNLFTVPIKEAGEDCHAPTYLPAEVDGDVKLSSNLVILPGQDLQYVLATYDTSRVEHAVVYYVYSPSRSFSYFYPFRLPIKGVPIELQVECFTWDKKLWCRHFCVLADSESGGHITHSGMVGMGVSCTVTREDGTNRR
Chain of UniProt Q95MM9 (Q95MM9 27-342): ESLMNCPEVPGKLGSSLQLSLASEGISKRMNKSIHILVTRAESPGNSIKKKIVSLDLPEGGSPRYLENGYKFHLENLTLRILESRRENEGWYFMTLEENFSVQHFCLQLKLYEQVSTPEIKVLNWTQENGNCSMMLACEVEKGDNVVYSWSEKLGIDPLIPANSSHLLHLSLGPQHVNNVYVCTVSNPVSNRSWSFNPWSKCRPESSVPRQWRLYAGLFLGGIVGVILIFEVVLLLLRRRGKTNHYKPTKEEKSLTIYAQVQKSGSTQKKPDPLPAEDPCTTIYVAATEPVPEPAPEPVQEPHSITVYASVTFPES

For “CDV-A75/17 hemagglutinin (from UniProt Q65999)”, in assay [1], the pKd is 5.10.

In assay [2], “soluble SLAM ectodomain (V-set and C2) from cotton-top tamarin (domain or fragment)” showed a negative logarithm of the Kd (pKd) of 7.33, a koff of 0.000952 s⁻¹ and a kon of 20400 M⁻¹ s⁻¹. In assay [3], this substance gave a pKd of 6.61, an off-rate (koff) of 0.00241 s⁻¹ and an association rate constant (kon) of 9890 M⁻¹ s⁻¹.
